From article doi:10.1101/2024.01.16.575844 come the findings set out here.

The experiment has as its target C3b (human) (UniProt P01024). The experiment in a line: radioligand binding.
UniProt P01024, sequence (P01024 whole entry, looked up): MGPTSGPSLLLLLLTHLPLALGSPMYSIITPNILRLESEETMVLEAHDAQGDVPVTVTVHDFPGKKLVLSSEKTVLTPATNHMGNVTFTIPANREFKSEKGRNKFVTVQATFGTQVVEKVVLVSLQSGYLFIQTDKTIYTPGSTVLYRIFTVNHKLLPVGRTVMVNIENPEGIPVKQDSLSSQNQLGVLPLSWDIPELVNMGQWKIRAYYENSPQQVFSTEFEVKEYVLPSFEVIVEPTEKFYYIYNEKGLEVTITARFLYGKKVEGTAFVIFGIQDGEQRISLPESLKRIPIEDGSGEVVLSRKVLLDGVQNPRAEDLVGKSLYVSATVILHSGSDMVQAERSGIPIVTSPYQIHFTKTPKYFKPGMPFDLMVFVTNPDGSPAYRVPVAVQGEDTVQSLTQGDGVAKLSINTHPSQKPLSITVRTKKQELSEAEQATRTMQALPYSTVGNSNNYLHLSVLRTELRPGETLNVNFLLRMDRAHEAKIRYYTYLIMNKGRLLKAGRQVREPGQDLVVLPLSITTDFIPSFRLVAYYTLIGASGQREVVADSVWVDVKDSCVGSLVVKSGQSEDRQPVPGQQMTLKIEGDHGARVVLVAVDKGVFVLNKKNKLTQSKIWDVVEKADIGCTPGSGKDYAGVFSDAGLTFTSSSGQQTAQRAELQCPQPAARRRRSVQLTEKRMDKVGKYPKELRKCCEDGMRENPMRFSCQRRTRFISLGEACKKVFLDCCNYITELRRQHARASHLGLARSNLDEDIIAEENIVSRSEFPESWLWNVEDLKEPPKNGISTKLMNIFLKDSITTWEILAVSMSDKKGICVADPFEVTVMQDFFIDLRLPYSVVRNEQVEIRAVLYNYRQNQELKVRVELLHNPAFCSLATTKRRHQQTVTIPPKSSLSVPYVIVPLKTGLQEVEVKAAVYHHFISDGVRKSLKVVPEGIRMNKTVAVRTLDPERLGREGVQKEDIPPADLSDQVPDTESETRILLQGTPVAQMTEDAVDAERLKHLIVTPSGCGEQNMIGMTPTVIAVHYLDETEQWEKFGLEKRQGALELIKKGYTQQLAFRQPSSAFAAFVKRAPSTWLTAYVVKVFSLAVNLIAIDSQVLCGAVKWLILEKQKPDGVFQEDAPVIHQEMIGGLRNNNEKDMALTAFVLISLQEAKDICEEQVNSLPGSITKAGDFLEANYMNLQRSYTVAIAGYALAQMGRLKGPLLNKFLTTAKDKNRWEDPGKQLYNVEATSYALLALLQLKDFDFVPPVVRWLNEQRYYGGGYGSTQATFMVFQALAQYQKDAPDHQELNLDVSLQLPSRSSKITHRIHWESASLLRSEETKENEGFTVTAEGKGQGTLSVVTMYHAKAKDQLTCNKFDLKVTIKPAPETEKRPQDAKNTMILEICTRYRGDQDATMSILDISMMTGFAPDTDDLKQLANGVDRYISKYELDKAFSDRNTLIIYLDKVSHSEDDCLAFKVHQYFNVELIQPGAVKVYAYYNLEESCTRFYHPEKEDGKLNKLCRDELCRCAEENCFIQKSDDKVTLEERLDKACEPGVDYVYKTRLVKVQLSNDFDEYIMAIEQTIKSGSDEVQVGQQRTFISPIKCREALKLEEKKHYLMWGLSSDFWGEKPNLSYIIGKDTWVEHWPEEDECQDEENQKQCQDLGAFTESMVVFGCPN

complement factor B (natural protein) registered a binding in 5 mM EDTA as percent of that in 0.2 mM Mg2+ of 60 to 70%, a percent by which binding in 5 mM Mg2+ exceeds that in 0.02 mM Mg2+ of 50% and a percent inhibition of 125I-labelled factor B binding to C3b-thiol Sepharose of 100%.
